Laboratory results published in patent publication US20220372155A1 (LYVGEN BIOPHARMA, published 2022).

B1: Ly401 (bispecific antibody, human IgG1, kappa)
heavy: EVQLVESGGGVVQPGRSLRLSCSASGFDFTTYWMSWVRQAPGKGLEWIGEIHPDSSTINYAPSLKDRFTISRDNAKNTLFLQMDSLRPEDTGVYFCASLYFGFPWFAYWGQGTPVTVSSASTKGPSVFPLAPSSKSTSGGTAALGCLVKDYFPEPVTVSWNSGALTSGVHTFPAVLQSSGLYSLSSVVTVPSSSLGTQTYICNVNHKPSNTKVDKKVEPKSCDKTHTCPPCPAPELLGPSVFLFPPKPKDTLMISRTPEVTCVVVDVSHEDPEVKFNWYVDGVEVHNAKTKPREEQYNSTYRVVSVLTVLHQDWLNGKEYKCKVSNKALPAPIEKTISKAKGQPREPQVYTLPPSREEMTKNQVSLTCLVKGFYPSDIAVEWESNGQPENNYKTTPPVLDSDGSFFLYSKLTVDKSRWQQGNVFSCSVMHEALHNHYTQKSLSLSPGGGGGSGGGGSGGGGSGGGGSDIQMTQSPSSLSASVGDRVTITCKASQNIYIYLNWYQQKPGKAPKLLIYNTNNLQTGVPSRFSGSGSGTDFTLTISSLQPEDFATYYCLQHSSRRTFGGGTKVEIKGGGGSGGGGSGGGGSGGGGSQVQLVESGGGLVQPGGSLKLSCATSGFNFNDYFMNWVRQASGKGLEWVGQIRNKNYNYATYYTESLEGRVTISRDDSKNTAYLQMNSLKTEDTAVYYCTSYYYDGFADYFDYWGQGTTVTVSS
light: DIQLTQSPSSLSASVGDRVTITCKASQDVGTSVAWYQQKPGKAPKLLIYWTSTRHTGVPSRFSGSGSGTDFTFTISSLQPEDIATYYCQQYSLYRSFGQGTKVEIKRTVAAPSVFIFPPSDEQLKSGTASVVCLLNNFYPREAKVQWKVDNALQSGNSQESVTEQDSKDSTYSLSSTLTLSKADYEKHKVYACEVTHQGLSSPVTKSFNRGEC
notes: Ly311 HC (IgG1 mutated Fc)-TM740 scFv VL-VH + Ly311 LC
B2: Ly402 (bispecific antibody, human IgG1, kappa)
heavy: EVQLVESGGGVVQPGRSLRLSCSASGFDFTTYWMSWVRQAPGKGLEWIGEIHPDSSTINYAPSLKDRFTISRDNAKNTLFLQMDSLRPEDTGVYFCASLYFGFPWFAYWGQGTPVTVSSASTKGPSVFPLAPSSKSTSGGTAALGCLVKDYFPEPVTVSWNSGALTSGVHTFPAVLQSSGLYSLSSVVTVPSSSLGTQTYICNVNHKPSNTKVDKKVEPKSCDKTHTCPPCPAPELLGPSVFLFPPKPKDTLMISRTPEVTCVVVDVSHEDPEVKFNWYVDGVEVHNAKTKPREEQYNSTYRVVSVLTVLHQDWLNGKEYKCKVSNKALPAPIEKTISKAKGQPREPQVYTLPPSREEMTKNQVSLTCLVKGFYPSDIAVEWESNGQPENNYKTTPPVLDSDGSFFLYSKLTVDKSRWQQGNVFSCSVMHEALHNHYTQKSLSLSPGGGGGSGGGGSGGGGSGGGGSQVQLVESGGGLVQPGGSLKLSCATSGFNFNDYFMNWVRQASGKGLEWVGQIRNKNYNYATYYTESLEGRVTISRDDSKNTAYLQMNSLKTEDTAVYYCTSYYYDGFADYFDYWGQGTTVTVSSGGGGSGGGGSGGGGSGGGGSDIQMTQSPSSLSASVGDRVTITCKASQNIYIYLNWYQQKPGKAPKLLIYNTNNLQTGVPSRFSGSGSGTDFTLTISSLQPEDFATYYCLQHSSRRTFGGGTKVEIK
light: DIQLTQSPSSLSASVGDRVTITCKASQDVGTSVAWYQQKPGKAPKLLIYWTSTRHTGVPSRFSGSGSGTDFTFTISSLQPEDIATYYCQQYSLYRSFGQGTKVEIKRTVAAPSVFIFPPSDEQLKSGTASVVCLLNNFYPREAKVQWKVDNALQSGNSQESVTEQDSKDSTYSLSSTLTLSKADYEKHKVYACEVTHQGLSSPVTKSFNRGEC
notes: Ly311 HC (IgG1 mutated Fc)-TM740 scFv VH-VL + Ly311 LC
B3: TM378 (antibody, human IgG4 S228P, kappa, V domains shown)
VH: EVHLVESGGGLVQPGRSLKLSCAASGFTFTNYGLHWIRQAPTKGLEWVASISPSGGVTYYRDSVKGRFTISRDNGKTTLHLQMDSLRSEDTATYYCALPFLGWGGANWIAHWGQGTLVTVSS
VL: DIQMTQSPASLSASLGETVSIECLASEDISNDLAWYQQKSGKSPQLLIYFVDRLLDGVPSRFSGSGSGTRHSLKISGMQPEDEADYFCQQSYKYPPTFGGGTKLELKR
notes: chimeric LYV378, human IgG4; also called chimeric counterpart TM378
B4: Ly403 (bispecific antibody, human IgG1, kappa)
heavy: EVQLVESGGGVVQPGRSLRLSCSASGFDFTTYWMSWVRQAPGKGLEWIGEIHPDSSTINYAPSLKDRFTISRDNAKNTLFLQMDSLRPEDTGVYFCASLYFGFPWFAYWGQGTPVTVSSASTKGPSVFPLAPSSKSTSGGTAALGCLVKDYFPEPVTVSWNSGALTSGVHTFPAVLQSSGLYSLSSVVTVPSSSLGTQTYICNVNHKPSNTKVDKKVEPKSCDKTHTCPPCPAPELLGPSVFLFPPKPKDTLMISRTPEVTCVVVDVSHEDPEVKFNWYVDGVEVHNAKTKPREEQYNSTYRVVSVLTVLHQDWLNGKEYKCKVSNKALPAPIEKTISKAKGQPREPQVYTLPPSREEMTKNQVSLTCLVKGFYPSDIAVEWESNGQPENNYKTTPPVLDSDGSFFLYSKLTVDKSRWQQGNVFSCSVMHEALHNHYTQKSLSLSPGK
light: DIQLTQSPSSLSASVGDRVTITCKASQDVGTSVAWYQQKPGKAPKLLIYWTSTRHTGVPSRFSGSGSGTDFTFTISSLQPEDIATYYCQQYSLYRSFGQGTKVEIKRTVAAPSVFIFPPSDEQLKSGTASVVCLLNNFYPREAKVQWKVDNALQSGNSQESVTEQDSKDSTYSLSSTLTLSKADYEKHKVYACEVTHQGLSSPVTKSFNRGECGGGGSGGGGSGGGGSGGGGSDIQMTQSPSSLSASVGDRVTITCKASQNIYIYLNWYQQKPGKAPKLLIYNTNNLQTGVPSRFSGSGSGTDFTLTISSLQPEDFATYYCLQHSSRRTFGGGTKVEIKGGGGSGGGGSGGGGSGGGGSQVQLVESGGGLVQPGGSLKLSCATSGFNFNDYFMNWVRQASGKGLEWVGQIRNKNYNYATYYTESLEGRVTISRDDSKNTAYLQMNSLKTEDTAVYYCTSYYYDGFADYFDYWGQGTTVTVSS
notes: Ly311 HC (IgG1 mutated Fc) + Ly311 LC-TM740 scFv VL-VH
B5: TM559 (antibody, human IgG2, kappa)
heavy: EVQLVESGGGLVQPGGSLRLSCAASGFTFTNYGLHWVRQAPGKGLEWVSSISPSGGVTYYRDSVKGRFTISRDNSKNTLYLQMNSLRAEDTAVYYCAKPFLGWGGANWIAHWGQGTLVTVSSASTKGPSVFPLAPCSRSTSESTAALGCLVKDYFPEPVTVSWNSGALTSGVHTFPAVLQSSGLYSLSSVVTVPSSNFGTQTYTCNVDHKPSNTKVDKTVERKCCVECPPCPAPPVAGPSVFLFPPKPKDTLMISRTPEVTCVVVDVSHEDPEVQFNWYVDGVEVHNAKTKPREEQFNSTFRVVSVLTVVHQDWLNGKEYKCKVSNKGLPAPIEKTISKTKGQPREPQVYTLPPSREEMTKNQVSLTCLVKGFYPSDIAVEWESNGQPENNYKTTPPMLDSDGSFFLYSKLTVDKSRWQQGNVFSCSVMHEALHNHYTQKSLSLSPG
light: DIQMTQSPSSLSASVGDRVTITCLASEDISNDLAWYQQKPGKAPKLLIYFVDRLLDGVPSRFSGSGSGTDFTLTISSLQPEDFATYYCQQSYKYPPTFGQGTKLEIKRTVAAPSVFIFPPSDEQLKSGTASVVCLLNNFYPREAKVQWKVDNALQSGNSQESVTEQDSKDSTYSLSSTLTLSKADYEKHKVYACEVTHQGLSSPVTKSFNRGEC
notes: LYV378_VH-1/IgG2, LYV378_VL-1/kappa
B6: LP3781 (antibody, human IgG1, kappa)
heavy: not shown
light: DIQMTQSPSSLSASVGDRVTITCLASEDISNDLAWYQQKPGKAPKLLIYFVDRLLDGVPSRFSGSGSGTDFTLTISSLQPEDFATYYCQQSYKYPPTFGQGTKLEIKRTVAAPSVFIFPPSDEQLKSGTASVVCLLNNFYPREAKVQWKVDNALQSGNSQESVTEQDSKDSTYSLSSTLTLSKADYEKHKVYACEVTHQGLSSPVTKSFNRGEC
notes: LYV378_VH-1/IgG1, LYV378_VL-1/kappa; also called TM3781
B7: LP3782 (antibody, human IgG4 S228P, kappa)
heavy: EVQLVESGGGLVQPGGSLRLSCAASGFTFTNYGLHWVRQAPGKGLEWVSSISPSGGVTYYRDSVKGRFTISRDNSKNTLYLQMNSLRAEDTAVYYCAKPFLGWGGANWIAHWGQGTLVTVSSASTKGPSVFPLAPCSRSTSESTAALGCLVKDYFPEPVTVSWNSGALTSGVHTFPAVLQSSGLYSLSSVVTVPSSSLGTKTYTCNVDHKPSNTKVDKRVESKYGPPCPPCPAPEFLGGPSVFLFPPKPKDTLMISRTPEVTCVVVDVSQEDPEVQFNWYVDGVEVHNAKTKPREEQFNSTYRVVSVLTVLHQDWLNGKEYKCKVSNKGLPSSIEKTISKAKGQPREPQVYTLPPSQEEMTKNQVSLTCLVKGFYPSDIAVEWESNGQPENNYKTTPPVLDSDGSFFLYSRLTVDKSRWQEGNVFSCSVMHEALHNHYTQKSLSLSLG
light: DIQMTQSPSSLSASVGDRVTITCLASEDISNDLAWYQQKPGKAPKLLIYFVDRLLDGVPSRFSGSGSGTDFTLTISSLQPEDFATYYCQQSYKYPPTFGQGTKLEIKRTVAAPSVFIFPPSDEQLKSGTASVVCLLNNFYPREAKVQWKVDNALQSGNSQESVTEQDSKDSTYSLSSTLTLSKADYEKHKVYACEVTHQGLSSPVTKSFNRGEC
notes: LYV378_VH-1/IgG4, LYV378_VL-1/kappa; also called TM3782
B8: LP3783 (antibody, human IgG1, kappa)
heavy: EVQLVESGGGLVQPGGSLRLSCAASGFTFTNYGLHWVRQAPGKGLEWVSSISPSGGVTYYRDSVKGRFTISRDNSKNTLYLQMNSLRAEDTAVYYCAKPFLGWGGANWIAHWGQGTLVTVSSASTKGPSVFPLAPSSKSTSGGTAALGCLVKDYFPEPVTVSWNSGALTSGVHTFPAVLQSSGLYSLSSVVTVPSSSLGTQTYICNVNHKPSNTKVDKKVEPKSCDKTHTCPPCPAPELLGPSVFLFPPKPKDTLMISRTPEVTCVVVDVEHEDPEVKFNWYVDGVEVHNAKTKPREEQYNSTYRVVSVLTVLHQDWLNGKEYKCKVSNKALPAPIEKTISKAKGQPREPQVYTLPPSREEMTKNQVSLTCLVKGFYPSDIAVEWESNGQPENNYKTTPPVLDSDGSFFLYSKLTVDKSRWQQGNVFSCSVMHEALHNHYTQKSLSLSPG
light: DIQMTQSPSSLSASVGDRVTITCLASEDISNDLAWYQQKPGKAPKLLIYFVDRLLDGVPSRFSGSGSGTDFTLTISSLQPEDFATYYCQQSYKYPPTFGQGTKLEIKRTVAAPSVFIFPPSDEQLKSGTASVVCLLNNFYPREAKVQWKVDNALQSGNSQESVTEQDSKDSTYSLSSTLTLSKADYEKHKVYACEVTHQGLSSPVTKSFNRGEC
notes: LYV378_VH-1/IgG1mut, LYV378_VL-1/kappa; also called TM3783; Ly3783
B9: TM740 (antibody, human IgG1, kappa)
heavy: QVQLVESGGGLVQPGGSLKLSCATSGFNFNDYFMNWVRQASGKGLEWVGQIRNKNYNYATYYTESLEGRVTISRDDSKNTAYLQMNSLKTEDTAVYYCTSYYYDGFADYFDYWGQGTTVTVSSASTKGPSVFPLAPSSKSTSGGTAALGCLVKDYFPEPVTVSWNSGALTSGVHTFPAVLQSSGLYSLSSVVTVPSSSLGTQTYICNVNHKPSNTKVDKKVEPKSCDKTHTCPPCPAPELLGPSVFLFPPKPKDTLMISRTPEVTCVVVDVEHEDPEVKFNWYVDGVEVHNAKTKPREEQYNSTYRVVSVLTVLHQDWLNGKEYKCKVSNKALPAPIEKTISKAKGQPREPQVYTLPPSREEMTKNQVSLTCLVKGFYPSDIAVEWESNGQPENNYKTTPPVLDSDGSFFLYSKLTVDKSRWQQGNVFSCSVMHEALHNHYTQKSLSLSPG
light: DIQMTQSPSSLSASVGDRVTITCKASQNIYIYLNWYQQKPGKAPKLLIYNTNNLQTGVPSRFSGSGSGTDFTLTISSLQPEDFATYYCLQHSSRRTFGGGTKVEIKRTVAAPSVFIFPPSDEQLKSGTASVVCLLNNFYPREAKVQWKVDNALQSGNSQESVTEQDSKDSTYSLSSTLTLSKADYEKHKVYACEVTHQGLSSPVTKSFNRGEC
notes: VH-2Y/IgG1mut, VL-1/kappa

What follows are binders tested against T1, human CD40 expressed on CHO cells (human, UniProt P25942 21-277) (assay: FACS, CHO cells).
T1 construct: whole, on cells; also used for the reporter cells over-expressing human CD40; also called cellular CD40; CHO-CD40 cells
T1 sequence (P25942 21-277): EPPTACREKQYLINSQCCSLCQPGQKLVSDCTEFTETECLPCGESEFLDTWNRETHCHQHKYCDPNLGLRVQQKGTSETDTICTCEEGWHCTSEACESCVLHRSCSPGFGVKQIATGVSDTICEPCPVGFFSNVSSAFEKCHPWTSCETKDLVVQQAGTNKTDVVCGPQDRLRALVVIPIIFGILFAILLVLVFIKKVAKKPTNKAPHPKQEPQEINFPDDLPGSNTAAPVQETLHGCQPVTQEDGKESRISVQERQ
B1: binds.
B2: binds.
B3: binds.
B4: binds.
B5: binds.
B6: binds.
B7: binds.
B8: binds.
B9: binds.
